# “And” between values parts separate entries of the source, which are not always exact repeats. Equal values may be shown once.
# Target: the molecule itself
# Assay: AUC
protein,measurement,value
"human BOLA3 (natural protein, UniProt Q53S33 25-107, looked up) MFATQTEGELRVTQILKEKFPRATAIKVTDISGGCGAMYEIKIESEEFKEKRTVQQHQMVNQALKEEIKEMHGLRIFTSVPKR",stoichiometry N,2 and 4

# Source: article PMC6812618 (Journal of biological inorganic chemistry : JBIC : a …, 2019)
